Results on 1 molecule are retold here after patent publication US20100095387A1, “METHODS AND REAGENTS FOR SCREENING NEW DRUGS AND FOR TREATING ION PUMP ASSOCIATED DISORDERS AND DISEASES” (priority 2005, published 2010).

One experiment relates to chick skeletal myotubes. The experiment is described as follows: Fos expression in chick muscle cultures. It counts as cell-based. The conditions noted are these: 1 nM C-Ag15 with 50 pM C-Ag95z8. The protocol:
Chick muscle cultures were prepared from pectoral muscles of 10-11-d-old White Leghorn chick embryos as described previously (Hilgenberg et al., 1999). Experiments were performed on 4-6-d-old cultures.
Fos expression in cortical cultures was measured by in situ enzyme-linked immunoassay (Hilgenberg et al., 1999). In brief, 11-14-d-old neuronal cultures were treated for 10 min with agrin or other agent diluted in NBM or PBS, then washed in cNBM and returned to the incubator for 2 h. Cultures were rinsed in PBS, fixed in ice cold 4% PFA, and blocked in PBS containing 0.1% Triton X-100 and 4% BSA (PBSTB) before being incubated in a primary rabbit antibody against Fos (Ab-2; Oncogene Research Products) and secondary goat antibody against […] conjugated to alkaline phosphatase (Southern Biotechnology Associates, Inc.). The level of Fos expression was determined by monitoring conversion of p-nitrophenyl phosphate to a soluble yellow reaction product at 405 nm.
To learn whether inhibition of agrin signaling by C-Ag15 might extend to other neurons or even muscle, mouse hippocampal and cerebellar neurons or chick skeletal myotubes were incubated with 50 pM C-Ag95z8 alone or in the presence of 1 nM C-Ag15, a concentration that blocks activity in cortical neurons. […] However, co-incubation with C-Ag15 inhibited Fos expression in the neurons, but had no effect on muscle. […]

Experiment [1] has as its target rat α3 subunit of the Na+/K+-ATPase (Rattus norvegicus, UniProt P06687). The experiment is described as follows: Na+ imaging of non-neuronal cells transfected with pRcα3. It counts as cell-based.
Experiment [2] deals with cultured cortical neurons. The experiment is described as follows: Firing properties of cultured cortical neurons in normal external solution. The format is cell-based, mouse. The settings on record: co-incubation with C-Ag15.
The target of a further experiment is α3Na+/K+-ATPase (Mus musculus, UniProt Q6PIC6). The experiment is described as follows: Whole cell current clamp of cultured cortical neurons, channel blockers present. The format is cell-based.
The test system of the next experiment is chick myotubes. The experiment is described as follows: AChR clustering assay. The settings on record: 1 nM C-Ag15 with 50 pM C-Ag95z8 overnight. It counts as cell-based.
A further experiment deals with cardiac myocytes. The experiment is described as follows: Ca2+ (Fura-2) and Na+ imaging of cultured cardiac myocytes. The settings on record: 10 fold excess of C-Ag15.
The subject of the next experiment is cerebellar neurons. The experiment is described as follows: Fos expression in cerebellar neurons. The conditions noted are these: 1 nM C-Ag15 with 50 pM C-Ag95z8. It counts as cell-based, mouse. The procedure:
Mouse cortical cultures were prepared from newborn or 1-d-old ICR strain mice (Harlan) as described previously (Hilgenberg et al., 1999). For the first 24 h after plating, cells were maintained in neural basal medium (NBM) plus B27 supplements (Invitrogen), and in nonneuronal cell-conditioned NBM (cNBM) plus B27 thereafter, at 37° C. in humidified 5% CO2 atmosphere. To further reduce proliferation of nonneuronal cells, cultures on glass coverslips used for histology were treated with 5 μM 5-fluoro-2-deoxyuridine (Sigma-Aldrich) 3-4 d after plating. Hippocampal and cerebellar cultures were prepared in a similar manner. Experiments were performed on 10-14-d-old cultures. Agrin-deficient neuron cultures were prepared from cortices of embryonic d 18-19 fetuses resulting from matings between mice heterozygous for a mutation in the agrin gene (Gautam et al., 1996). Cultures were prepared and genotyped as described previously (Li et al., 1999), and were maintained as above.
Fos expression in cortical cultures was measured by in situ enzyme-linked immunoassay (Hilgenberg et al., 1999). In brief, 11-14-d-old neuronal cultures were treated for 10 min with agrin or other agent diluted in NBM or PBS, then washed in cNBM and returned to the incubator for 2 h. […] The level of Fos expression was determined by monitoring conversion of p-nitrophenyl phosphate to a soluble yellow reaction product at 405 nm. […]

Experiment [3] deals with T1, α3 subunit of the Na+/K+-ATPase (Mus musculus, UniProt Q6PIC6).
T1 construct: a 110 kDa band characteristic of the native α3Na+/K+-ATPase; endogenous in cells; host or cells: primary mouse cortical neurons, 10-16 days in culture
The experiment is described as follows: Chemical cross-linking of agrin fragments to cortical neurons, immunoprecipitation and immunoblot. It counts as binding. The protocol:
Membrane impermeant chemical cross-linking agents BS^3 and DMA were used to stabilize the bond between agrin and its binding sites on cell surface membranes. Cultured neurons were washed briefly in PBS containing 10 mM EDTA followed by preincubation with one or more agrin fragment in PBS^2+ for 30 minutes at room temperature and then cooled on ice prior to addition of a 10× solution of cross-linking agent to a final concentration of 0.1 mM. The cross-linking reaction was allowed to proceed for 30 minutes after which any unreacted cross-linker was quenched and removed by washing with ice cold PBS^2+ containing 50 mM ethanolamine. For immunoblot analysis, cells were scraped into ice-cold TI buffer (20 mM Tris, pH 7.4; 10 mM EDTA; protease inhibitors (Sigma, P8340)) then Dounce homogenized and membrane fraction recovered by centrifugation. For the immunoprecipitation studies, cells were scraped and homogenized in TI buffer containing 150 mM NaCl and 0.5% Triton X-100. Cell extracts were cleared by centrifugation and aliquots of the detergent soluble fraction incubated with the appropriate antibody at 4° C. overnight. Antigen-antibody complexes were precipitated with either protein A or protein G and resuspended in SDS-PAGE sample buffer for immunoblot analysis.
Ligand induced phosphorylation is a common first step in membrane receptor activation and inhibition of tyrosine kinase activity blocks agrin signalling in central nervous system neurons. To determine if agrin induced phosphorylation of the putative agrin receptor, membranes from neurons cross-linked to C-Ag208 or C-Ag15, alone or in combination, were dissolved, in a detergent-containing buffer and aliquots immunoprecipitated with RAg1 or the phosphotyrosine antibody mAb4G10 (Upstate). Immunoprecipitated proteins were analyzed by immunoblotting with a monoclonal antibody (9E10.2, Invitrogen) against the COON-terminal myc tag on the agrin fragments.
To confirm the results of the mass spectrometry the ability of different α-subunit antibodies to recognize the putative agrin-Na^+/K^+-ATPase complex was tested. […]

“Also recorded” adds a separate entry of the source.

B1: C-Ag15: 15-kD COOH-terminal fragment of agrin created by deleting 37 amino acids from the NH2 terminus of C-Ag20, SEQ. ID NO. 3 (protein)
chain: MDPWIGKAAERADYMALAIVDGHLQLSYDLASQPVVLRSTVKVNTNRWLRVRAHREHREGSLQVGNEAPVTSSSPLGATQLDTDGALWLGGLQKLPVGQPLPKAYGTGFVGCLRNVVGHRQLHLLEDAVTKPELRPCPTLNSKLGPEQKLISEEDLNSAVDHHHHHH
modifications: Synthetically produced sequence
Turning to B1, the “effect on C-Ag95z8-induced Fos expression” value in the experiment on chick skeletal myotubes is listed as “no effect”. Moreover, in experiment [1], the “antagonism of active agrin fragments” value was “effective antagonist” and the “intracellular Na+ in cells expressing the α3 subunit” value is given as “unaffected”. Further, in experiment [2], the “effect on depolarization and action potential increase induced by C-Ag20 isoforms” value was “blocked”. For the same molecule, in the experiment with α3Na+/K+-ATPase, the “change in membrane potential” value is listed as −1.0±0.4 mV, the “effect on depolarization induced by active agrin fragments” value is on record as “effective in blocking depolarization” and the “effect on ouabain induced membrane depolarization” value was “blocked”. Also, the “effect on AChR clustering activity of C-Ag95z8” value with chick myotubes was “no effect”. Also, the “antagonism of C-Ag208 response” value with cardiac myocytes is given as “effective agrin antagonist; also recorded: effectively blocks”. The “effect on C-Ag95z8-induced Fos expression” value in the experiment on cerebellar neurons is “completely inhibited”. Moreover, in experiment [3] (cross-linked in combination with C-Ag208), the “effect on C-Ag208 binding and phosphorylation” value is “blocking both binding and phosphorylation”. Moreover, the “tyrosine phosphorylation of the cross-linked complex” value in experiment [3] (immunoprecipitation with phosphotyrosine antibody mAb4G10) is “did not induce phosphorylation”.
